Results: patent CN115710315A (DONGGUAN PENGZHI BIOTECHNOLOGY CO LTD, dated 2023)
One block for each molecule: values may come before it.

Molecular target: T1, CA15-3抗原 (UniProt P15941 24-1097, limits assumed)
T1 construct: The origin of the antigen preparation used in the assays is not described; also called CA15-3(MUC1); CA15-3蛋白
Assay: BLI, AMC sensor, antibody immobilised at 10 ug/ml, CA15-3 antigen in serial dilution

T1 sequence (P15941 24-1097 limits assumed): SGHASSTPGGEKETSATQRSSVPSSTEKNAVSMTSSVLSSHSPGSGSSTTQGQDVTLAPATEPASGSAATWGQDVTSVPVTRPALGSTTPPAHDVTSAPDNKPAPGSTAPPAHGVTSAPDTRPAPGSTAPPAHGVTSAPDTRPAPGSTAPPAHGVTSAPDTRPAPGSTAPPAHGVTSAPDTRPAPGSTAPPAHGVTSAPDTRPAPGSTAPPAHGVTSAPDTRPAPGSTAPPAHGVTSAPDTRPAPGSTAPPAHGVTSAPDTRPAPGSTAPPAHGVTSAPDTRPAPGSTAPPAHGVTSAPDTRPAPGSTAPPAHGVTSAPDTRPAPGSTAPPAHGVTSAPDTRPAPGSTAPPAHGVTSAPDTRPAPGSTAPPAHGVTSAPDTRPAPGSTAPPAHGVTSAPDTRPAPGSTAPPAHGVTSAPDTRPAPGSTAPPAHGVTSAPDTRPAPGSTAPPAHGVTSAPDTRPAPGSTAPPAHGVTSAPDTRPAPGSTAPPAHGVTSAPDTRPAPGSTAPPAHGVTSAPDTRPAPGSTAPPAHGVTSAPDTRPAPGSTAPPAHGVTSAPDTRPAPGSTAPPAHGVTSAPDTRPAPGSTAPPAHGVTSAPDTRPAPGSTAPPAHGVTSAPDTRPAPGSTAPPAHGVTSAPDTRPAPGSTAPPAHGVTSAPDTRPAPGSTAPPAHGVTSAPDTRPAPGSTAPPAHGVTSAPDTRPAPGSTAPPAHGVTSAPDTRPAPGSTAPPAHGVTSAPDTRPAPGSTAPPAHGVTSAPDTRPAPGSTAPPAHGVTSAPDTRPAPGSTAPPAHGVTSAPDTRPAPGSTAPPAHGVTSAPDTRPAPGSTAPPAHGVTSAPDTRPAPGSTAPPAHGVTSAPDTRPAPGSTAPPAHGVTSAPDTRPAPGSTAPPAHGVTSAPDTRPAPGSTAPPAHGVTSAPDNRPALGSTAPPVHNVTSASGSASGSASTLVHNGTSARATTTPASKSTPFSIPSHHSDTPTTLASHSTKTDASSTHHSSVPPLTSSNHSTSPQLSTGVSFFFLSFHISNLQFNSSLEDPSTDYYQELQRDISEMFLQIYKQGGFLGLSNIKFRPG

Kd: 84.5 nM
koff: 0.00375 s⁻¹
kon: 44400 M⁻¹ s⁻¹
Molecule: 对照 (antibody)

Kd: 5.17 nM
koff: 0.000161 s⁻¹
kon: 31100 M⁻¹ s⁻¹
B1: Anti-CA15-3 3F10 (antibody, V domains shown)
VH: EVQLVESGGGLVKPGGSLKLSCAASGFAFSNYPMSWVRQTPEMRLEWVAYISSGGDSTYYPGTVKGRFTISRDNAKSALYLQMSSLKSEDTAMYYCTFWFRGFDYWGQGTTLTVSS
VL: DVLMTQIPLSLPVSLGDQASLSCRSSQSIVHSNGNTYLEWYLQKPGQSPKLLIYKVSNRFSGVPDRFSGSGSGTDFTLKISRVEAEDLGVYYCFQGSHVPYTFGGGTKLEIK
